Laboratory results as given in patent publication US20210363204A1.

Key:
Test in all cases: cell-based or functional assay
human Nav1.6 (human) = human Nav1.6 (human) (UniProt Q9UQD0)
human Nav1.5 (human) = human Nav1.5 (human) (UniProt Q14524)
human Nav1.7 (human) = human Nav1.7 (human) (UniProt Q15858)

recombinant Protoxin-II (peptide) showed an IC50, QPatch electrophysiology assay (human Nav1.6 (human)) of 6.2e-08 M and a ratio of IC50 for Nav1.6 to IC50 for Nav1.7, QPatch (human Nav1.6 (human)) of 28 fold.
In the case of “recombinant Protoxin-II NV1D12 (peptide)”, the hNav1.5 QPatch IC50 (human Nav1.5 (human)) is reported as greater than 1000 nM.
For wild type Protoxin-II (peptide), the IC50, FLIPR Tetra membrane depolarization assay (human Nav1.7 (human)) was 4 nM.
